Source: PMC12005729

Assays:
Assay in all cases: native gel or EMSA + other: dynamic light scattering; self-assembly into the 24-mer cage; DLS at 25 °C, 1 µM protein in 50 mM Tris-HCl, pH 8, 150 mM NaCl
[1] = molecular target: Fr‐F5/59L (Fr‐E53F/E56F/E57F/R59L/E60F/E63F), mutant of recombinant horse spleen apo‐L ferritin (horse)
[2] = molecular target: Fr‐F5/59A (Fr‐E53F/E56F/E57F/R59A/E60F/E63F), mutant of recombinant horse spleen apo‐L ferritin (horse)
[3] = molecular target: Fr‐F6 (Fr‐E53F/E56F/E57F/R59F/E60F/E63F), mutant of recombinant horse spleen apo‐L ferritin (horse)
[4] = molecular target: Fr‐F2 (Fr‐E56F/R59F), mutant of recombinant horse spleen apo‐L ferritin (horse)
[5] = molecular target: Fr‐F4 (Fr‐R52F/E56F/R59F/E63F), mutant of recombinant horse spleen apo‐L ferritin (horse)
[6] = molecular target: Fr‐F1 (Fr‐R59F), mutant of recombinant horse spleen apo‐L ferritin (horse)

Substance: Fr‐F5/59L (Fr‐E53F/E56F/E57F/R59L/E60F/E63F), mutant of recombinant horse spleen apo‐L ferritin (natural protein)
- stoichiometry N [1]: 24

Substance: Fr‐F5/59A (Fr‐E53F/E56F/E57F/R59A/E60F/E63F), mutant of recombinant horse spleen apo‐L ferritin (natural protein)
- stoichiometry N [2]: 24

Substance: Fr‐F6 (Fr‐E53F/E56F/E57F/R59F/E60F/E63F), mutant of recombinant horse spleen apo‐L ferritin (natural protein)
- stoichiometry N [3]: 24

Substance: Fr‐F2 (Fr‐E56F/R59F), mutant of recombinant horse spleen apo‐L ferritin (natural protein)
- stoichiometry N [4]: 24

Substance: Fr‐F4 (Fr‐R52F/E56F/R59F/E63F), mutant of recombinant horse spleen apo‐L ferritin (natural protein)
- stoichiometry N [5]: 24

Substance: Fr‐F1 (Fr‐R59F), mutant of recombinant horse spleen apo‐L ferritin (natural protein)
- stoichiometry N [6]: 24
